Molecular target: recombinant human BMP6 (human) (UniProt P22004)
Experiment: cell-based or functional assay

UniProt P22004, sequence (P22004 382-513 limits assumed): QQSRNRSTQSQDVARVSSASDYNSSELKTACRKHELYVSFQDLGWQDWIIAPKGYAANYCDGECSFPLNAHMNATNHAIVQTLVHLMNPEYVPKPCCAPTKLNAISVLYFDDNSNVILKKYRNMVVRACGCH

BMP6-induced melanin content in human epidermal melanocytes (72 h): 15%
Substance: recombinant human Sclerostin (from UniProt Q9BQB4 24-213)

From patent publication US20110206625A1
